Assay results taken from US20160194391A1 (AstraZeneca / MedImmune, published 2016).
“And” between values parts separate entries of the source, which are not always exact repeats. Identical values can stand only once. One block for each binder: values may come before it.

What was measured:
3×FLAG-IL-6 [1] = target: T1, 3×FLAG-IL-6 (human); assay: SPR, 3×FLAG-IL-6 captured by anti-FLAG M2 on protein G, scFv as analyte (1-100 nM)
T1 construct: it may hold the pre-pro-trypsin leader

3×FLAG-IL-6 [2] = target: T1, 3×FLAG-IL-6; assay: SPR, 3×FLAG-IL-6 captured by anti-FLAG M2 on protein G, scFv as analyte
human IL-6 [3] = target: T2, human IL-6 (human, UniProt P05231 30-212); assay: cell-based or functional assay
monkey IL-12 (macaque) [4] = target: T3, monkey IL-12 (macaque) (macaque, UniProt P48091 23-219; P48095 23-328); assay: cell-based or functional assay
T3 sequence (looked up) 1: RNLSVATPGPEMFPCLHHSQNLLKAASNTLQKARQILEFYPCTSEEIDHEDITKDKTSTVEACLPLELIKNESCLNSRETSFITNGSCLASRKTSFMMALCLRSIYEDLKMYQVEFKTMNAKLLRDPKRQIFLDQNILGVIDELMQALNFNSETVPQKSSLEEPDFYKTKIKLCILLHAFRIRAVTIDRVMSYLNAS
T3 sequence (looked up) 2: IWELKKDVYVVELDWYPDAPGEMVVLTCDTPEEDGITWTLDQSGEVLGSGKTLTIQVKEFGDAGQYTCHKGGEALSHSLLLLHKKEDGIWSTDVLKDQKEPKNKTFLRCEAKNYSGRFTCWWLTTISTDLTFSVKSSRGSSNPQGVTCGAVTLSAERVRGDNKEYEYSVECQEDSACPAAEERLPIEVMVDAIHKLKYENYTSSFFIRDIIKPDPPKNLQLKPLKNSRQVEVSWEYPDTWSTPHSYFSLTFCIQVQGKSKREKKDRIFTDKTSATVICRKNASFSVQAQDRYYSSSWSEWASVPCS

3×FLAG-IL-6 [5] = target: T1, 3×FLAG-IL-6; assay: SPR, 3×FLAG-IL-6 captured by anti-FLAG M2 on protein G, bispecific as analyte
[6] = target: T4, human dimeric IL-23 (eBiosciences 34-8239) (human, UniProt P29460 23-328; Q9NPF7 20-189); assay: SPR, bispecific held on captured IL-6 (~240 RU), human dimeric IL-23 as analyte (3-25 nM)
T4 construct: Baculovirus-derived heterodimer; the bioassay used eBioscience 14-8239 or Humanzyme HZ-1049; also called heterodimeric recombinant IL-23; eBio IL23
T4 sequence (looked up) 1: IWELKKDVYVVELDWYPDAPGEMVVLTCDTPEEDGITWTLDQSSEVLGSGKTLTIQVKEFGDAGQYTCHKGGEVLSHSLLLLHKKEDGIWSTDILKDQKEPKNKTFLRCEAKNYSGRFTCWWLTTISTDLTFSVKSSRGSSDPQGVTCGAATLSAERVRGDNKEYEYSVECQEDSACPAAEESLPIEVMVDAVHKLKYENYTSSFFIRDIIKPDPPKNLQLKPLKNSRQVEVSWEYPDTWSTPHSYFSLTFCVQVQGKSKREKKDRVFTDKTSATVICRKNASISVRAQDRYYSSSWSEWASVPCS
T4 sequence (looked up) 2: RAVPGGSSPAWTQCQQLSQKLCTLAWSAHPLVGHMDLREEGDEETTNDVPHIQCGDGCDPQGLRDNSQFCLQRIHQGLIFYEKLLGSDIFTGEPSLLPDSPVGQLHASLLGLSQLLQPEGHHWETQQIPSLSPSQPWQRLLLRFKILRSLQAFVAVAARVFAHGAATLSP
Experimental: SPR of bispecific scFvs were carried out as previously described for measuring the anti-IL-6 moiety; however, protocol modifications were required in order to determine the binding kinetics of the anti-IL-23 scFv, 31A12. Briefly, IL-23 binding by the bispecific was performed by first immobilizing the bispecific with IL-6 as described, but at a constant density (˜240 RU). Binding and dissociation of a recombinant human dimeric IL-23 (34-8239, eBiosciences, San Diego, Calif.) was assayed in concentrations ranging from 3 to 25 nM using the same parameters detailed above.

monkey IL-12 (macaque) [7] = target: T3, monkey IL-12 (macaque); assay: cell-based or functional assay; remark: listed apart in the source
[8] = target: T4, human dimeric IL-23 (eBiosciences …); assay: cell-based or functional assay
human IL-6 [9] = target: T2, human IL-6; assay: cell-based or functional assay; remark: listed apart in the source
human IL-6 [10] = target: T2, human IL-6; assay: cell-based or functional assay; remark: listed apart in the source
3×FLAG-IL-6 [11] = target: T1, 3×FLAG-IL-6; assay: SPR, 3×FLAG-IL-6 captured by anti-FLAG M2 on protein G, scFv as analyte (1-100 nM); remark: listed apart in the source
Experimental: Equilibrium constants for scFvs were determined as previously described; however, the protocol was modified so that an epitope tagged IL-6 was captured on the chip surface and the dissociation of anti-IL-6 scFvs from IL-6 was monitored. Briefly, anti-FLAG® M2 antibody (200472, Agilent Technologies, Santa Clara, Calif.) was bound to Protein G, and then 3×FLAG-IL-6 was captured by the anti-FLAG antibody. The anti-IL-6 scFvs were assayed over a range of concentrations between 1 and 100 nM.
Anti IL-6 scFvs, humanized using the one step method, retained IL-6 neutralization activity when expressed in mammalian cells, as shown for 13A8 (FIG. 11A and FIG. 11B), 28D2 and 9C8 v3-1 (FIG. 11C).

human IL-6 [12] = target: T2, human IL-6; assay: cell-based or functional assay; remark: listed apart in the source

T1 sequence (chain, as listed by the source limits assumed): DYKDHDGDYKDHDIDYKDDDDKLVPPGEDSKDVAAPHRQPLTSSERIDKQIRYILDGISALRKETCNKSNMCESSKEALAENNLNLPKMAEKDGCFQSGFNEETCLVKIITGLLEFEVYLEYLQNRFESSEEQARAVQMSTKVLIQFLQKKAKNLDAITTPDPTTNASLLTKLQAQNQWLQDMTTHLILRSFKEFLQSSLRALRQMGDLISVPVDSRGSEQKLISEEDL

B2: 13A8c-PEG20 (scFv)
scFv: DIQLTQSPSFLSASVGDRVTITCQASQSISNELSWYQQKPGKAPKLLIYRASTLTSGVPSRFSGSGSGTEFTLTISSLQPEDFATYYCQQGYNSNDVDNVFGGGTKVEIKGGGGSGGGGSGGGGSGGGGSEVQLVESGGGLVQPGGSLRLSCTVSGIDLSSYDLSWVRQAPGKGLEWVGYIYTDSSTWYANWAKGRFTISRDNSKNTLYLQLNSLRAEDTAVYYCARGSTDYAFDTRLDLWGQGTLVTVSS
modifications: C-terminal azidohomoalanine (Aha) conjugated to 20 kDa linear PEG bis-alkyne
EC50 (pg/mL) of the folded scFv-PEG (human IL-6 [3]): 93 pg/mL

B4: 13A8n-PEG20 (scFv)
scFv: DIQLTQSPSFLSASVGDRVTITCQASQSISNELSWYQQKPGKAPKLLIYRASTLTSGVPSRFSGSGSGTEFTLTISSLQPEDFATYYCQQGYNSNDVDNVFGGGTKVEIKGGGGSGGGGSGGGGSGGGGSEVQLVESGGGLVQPGGSLRLSCTVSGIDLSSYDLSWVRQAPGKGLEWVGYIYTDSSTWYANWAKGRFTISRDNSKNTLYLQLNSLRAEDTAVYYCARGSTDYAFDTRLDLWGQGTLVTVSS
modifications: N-terminal azidohomoalanine (Aha) conjugated to 20 kDa linear PEG bis-alkyne
EC50 (pg/mL) of the folded scFv-PEG (human IL-6 [3]): 1980 pg/mL

B5: 13A8L-PEG20 (scFv)
scFv: DIQLTQSPSFLSASVGDRVTITCQASQSISNELSWYQQKPGKAPKLLIYRASTLTSGVPSRFSGSGSGTEFTLTISSLQPEDFATYYCQQGYNSNDVDNVFGGGTKVEIKGGGGSGGGGSGGGGSGGGGSEVQLVESGGGLVQPGGSLRLSCTVSGIDLSSYDLSWVRQAPGKGLEWVGYIYTDSSTWYANWAKGRFTISRDNSKNTLYLQLNSLRAEDTAVYYCARGSTDYAFDTRLDLWGQGTLVTVSS
modifications: azidohomoalanine (Aha) in the linker (13A8L) conjugated to 20 kDa linear PEG bis-alkyne
EC50 (pg/mL) of the folded scFv-PEG (human IL-6 [3]): 278 pg/mL

B6: 13A8 humanized scFv (mammalian expressed) (scFv)
scFv: DIQLTQSPSFLSASVGDRVTITCQASQSISNELSWYQQKPGKAPKLLIYRASTLTSGVPSRFSGSGSGTEFTLTISSLQPEDFATYYCQQGYNSNDVDNVFGGGTKVEIKGGGGSGGGGSGGGGSGGGGSEVQLVESGGGLVQPGGSLRLSCTVSGIDLSSYDMSWVRQAPGKGLEWVGYIYTDSSTWYANWAKGRFTISRDNSKNTLYLQMNSLRAEDTAVYYCARGSTDYAFDTRLDLWGQGTLVTVSSGPPPPHHHHHH
notes: also called humanized scFv 13A8; mammalian 13A8 scFv
EC50, inhibition of IL-6 induced B9 cell proliferation (human IL-6 [10]): 0.064 ng/mL
Kd (3×FLAG-IL-6 [11]): 0.0982 nM
koff (3×FLAG-IL-6 [11]): 8.64e-05 s⁻¹
kon (3×FLAG-IL-6 [11]): 876000 M⁻¹ s⁻¹
EC50, neutralization of IL-6 (human IL-6 [12]): 0.059 ng/mL

Now from value to binder:

Kd (3×FLAG-IL-6 [1]): 0.052 nM
koff (3×FLAG-IL-6 [1]): 7.6e-05 s⁻¹
kon (3×FLAG-IL-6 [1]): 1.45e+06 M⁻¹ s⁻¹
Kd (3×FLAG-IL-6 [2]): 0.0674 nM
koff (3×FLAG-IL-6 [2]): 7.1e-05 s⁻¹
kon (3×FLAG-IL-6 [2]): 1.05e+06 M⁻¹ s⁻¹
B1: 28D2-C Aha (scFv)
scFv: MAHHHHHHPPPPAAADIQLTQSPSFLSASVGDRVTITCQASEDLFSSLAWYQQKPGKAPKLLIYSASTLASGVPSRFSGSGSGTDFTLTISSLQPEDFATYYCLGLYYYLTPDPIYGFGGGTKVEIKGGGGSGGGGSGGGGSGGGGSEVQLVESGGGLVQPGGSLRLSCTVSGLSLSKNAIAWVRQAPGKGLEWVGIIYAGGATTYASWAKGRFTISRDNSKNTLYLQLNSLRAEDTAVYYCAREYAGDSYYTGYTQLDLWGQGTLVTVSSGM
modifications: azidohomoalanine (Aha) in place of the single Met, at the C terminus

IC50 (read off the curve) (interferon-gamma from NK92 cells, OD450) (monkey IL-12 (macaque) [4]): ~10 ng/mL
Kd (3×FLAG-IL-6 [5]): 0.215 nM
koff (3×FLAG-IL-6 [5]): 5.14e-05 s⁻¹
kon (3×FLAG-IL-6 [5]): 290000 M⁻¹ s⁻¹
Kd [6]: 0.0918 nM
koff [6]: 7.11e-05 s⁻¹
kon [6]: 773000 M⁻¹ s⁻¹
IC50 (read off the curve) (monkey IL-12 (macaque) [7]): ~10 ng/mL and ~20 ng/mL
Anti IL-23 EC50, batch A [8]: 2.94 ng/mL
Anti IL-23 EC50, batch B [8]: 1.19 ng/mL
Anti IL-23 EC50, batch C [8]: 2.04 ng/mL
Anti IL-6 EC50, batch A (human IL-6 [9]): 0.082 ng/mL
Anti IL-6 EC50, batch B (human IL-6 [9]): 0.064 ng/mL
Anti IL-6 EC50, batch C (human IL-6 [9]): 0.136 ng/mL
B3: 31A12c-PEG-13A8c bispecific (bispecific antibody)
scFv 1: DIQLTQSPSFLSASVGDRVTITCQASEDIESYLAWYQQKPGKAPKLLIYSASTLTSGVPSRFSGSGSGTEFTLTISSLQPEDFATYYCLGADDTTTVFGGGTKVEIKGGGGSGGGGSGGGGSGGGGSEVQLVESGGGLVQPGGSLRLSCTASGFSLSSYWLTWVRQAPGKGLEWVGTIATSSTYYASWAKGRFTISRDNSKNTLYLQLNSLRAEDTAVYYCARGLTTDYDLDLWGQGTLVTVSS
scFv 2: DIQLTQSPSFLSASVGDRVTITCQASQSISNELSWYQQKPGKAPKLLIYRASTLTSGVPSRFSGSGSGTEFTLTISSLQPEDFATYYCQQGYNSNDVDNVFGGGTKVEIKGGGGSGGGGSGGGGSGGGGSEVQLVESGGGLVQPGGSLRLSCTVSGIDLSSYDLSWVRQAPGKGLEWVGYIYTDSSTWYANWAKGRFTISRDNSKNTLYLQLNSLRAEDTAVYYCARGSTDYAFDTRLDLWGQGTLVTVSS
modifications: C-terminal azidohomoalanine (Aha) joined through a linear 20 kDa PEG to the Aha of the other scFv
notes: also called 31A12c-20KPEG-13A8c; 13A8c-PEG-31A12c

Kd (3×FLAG-IL-6 [1]): 0.109 nM
koff (3×FLAG-IL-6 [1]): 0.0001 s⁻¹
kon (3×FLAG-IL-6 [1]): 918000 M⁻¹ s⁻¹
EC50, inhibition of IL-6 induced B9 cell proliferation (human IL-6 [10]): 0.043 ng/mL
Kd (3×FLAG-IL-6 [11]): 0.109 nM
koff (3×FLAG-IL-6 [11]): 0.0001 s⁻¹
kon (3×FLAG-IL-6 [11]): 918000 M⁻¹ s⁻¹
B7: 28D2 humanized scFv (mammalian expressed) (scFv)
scFv: DIQLTQSPSFLSASVGDRVTITCQASEDLFSSLAWYQQKPGKAPKLLIYSASTLASGVPSRFSGSGSGTDFTLTISSLQPEDFATYYCLGLYYYLTPDPIYGFGGGTKVEIKGGGGSGGGGSGGGGSGGGGSEVQLVESGGGLVQPGGSLRLSCTVSGLSLSKNAIAWVRQAPGKGLEWVGIIYAGGATTYASWAKGRFTISRDNSKNTLYLQMNSLRAEDTAVYYCAREYAGDSYYTGYTQLDLWGQGTLVTVSSGPPPPHHHHHH
notes: also called 28D2 scFv
